Results reported in patent US11873336 (TENEOBIO, dated 2024).
Numbering of substitutions follows the chain as printed.

T1: human CD22 protein (recombinant CD22 extracellular domain) (human, UniProt P20273 20-687)
T1 construct: extracellular domain; also called SIGLEC-2
T1 sequence (looked up): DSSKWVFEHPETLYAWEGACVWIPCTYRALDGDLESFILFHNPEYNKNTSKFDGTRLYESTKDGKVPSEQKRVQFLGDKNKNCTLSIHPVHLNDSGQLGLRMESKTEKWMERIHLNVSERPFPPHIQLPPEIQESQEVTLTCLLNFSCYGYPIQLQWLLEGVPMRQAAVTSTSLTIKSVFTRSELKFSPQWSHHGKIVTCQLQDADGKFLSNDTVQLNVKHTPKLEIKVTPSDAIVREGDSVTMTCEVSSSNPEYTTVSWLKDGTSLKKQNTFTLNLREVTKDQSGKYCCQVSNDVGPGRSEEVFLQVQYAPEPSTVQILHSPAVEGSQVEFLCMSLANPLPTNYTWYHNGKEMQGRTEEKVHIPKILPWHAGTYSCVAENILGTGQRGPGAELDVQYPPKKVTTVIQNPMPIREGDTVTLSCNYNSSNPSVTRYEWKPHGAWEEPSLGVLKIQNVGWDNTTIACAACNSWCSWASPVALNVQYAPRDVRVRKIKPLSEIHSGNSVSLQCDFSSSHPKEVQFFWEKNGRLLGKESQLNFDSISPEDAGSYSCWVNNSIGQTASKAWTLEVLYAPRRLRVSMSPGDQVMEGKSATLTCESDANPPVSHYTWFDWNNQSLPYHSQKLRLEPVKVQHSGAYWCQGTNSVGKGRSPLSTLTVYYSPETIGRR

T2: human CD22 on CD22-positive Burkitt's lymphoma cells (Daudi, Raji, Ramos) (human, UniProt P20273 20-847)
T2 construct: whole, on cells; also called CD22+ cells; CD22 positive cells
T2 sequence (looked up): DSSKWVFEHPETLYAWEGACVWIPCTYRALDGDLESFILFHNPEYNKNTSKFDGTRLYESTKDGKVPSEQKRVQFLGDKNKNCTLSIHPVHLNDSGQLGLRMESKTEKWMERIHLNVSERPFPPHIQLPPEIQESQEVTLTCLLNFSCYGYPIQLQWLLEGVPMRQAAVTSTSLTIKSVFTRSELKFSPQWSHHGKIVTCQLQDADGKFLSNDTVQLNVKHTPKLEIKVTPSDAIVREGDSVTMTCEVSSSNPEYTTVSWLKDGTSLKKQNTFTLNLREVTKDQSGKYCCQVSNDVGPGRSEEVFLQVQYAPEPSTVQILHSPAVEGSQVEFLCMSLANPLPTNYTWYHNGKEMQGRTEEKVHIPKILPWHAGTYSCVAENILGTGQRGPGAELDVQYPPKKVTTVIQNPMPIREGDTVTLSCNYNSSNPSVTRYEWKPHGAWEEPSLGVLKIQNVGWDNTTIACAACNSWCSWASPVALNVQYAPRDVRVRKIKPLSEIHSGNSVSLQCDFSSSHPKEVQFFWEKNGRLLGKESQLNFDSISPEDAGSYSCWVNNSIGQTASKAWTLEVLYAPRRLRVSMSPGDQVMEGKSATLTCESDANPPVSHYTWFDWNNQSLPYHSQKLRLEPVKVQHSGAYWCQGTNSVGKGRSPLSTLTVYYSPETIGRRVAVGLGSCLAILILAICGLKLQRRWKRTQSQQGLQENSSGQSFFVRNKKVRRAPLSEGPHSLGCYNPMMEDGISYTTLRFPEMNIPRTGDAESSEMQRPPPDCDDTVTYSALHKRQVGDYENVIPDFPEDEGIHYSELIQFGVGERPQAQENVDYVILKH

B1: anti-CD22 heavy chain-only antibody with the VH of SEQ ID NO: 45 (antibody, V domains shown)
VH: QLQLQESGPGLVKPSETLSLTCTVSGDSISSGDYYWGWIRQPPGKGLEWIGSIYYSGSTYYNPSLKSRVTISVDTSKNQFSLKLSSVTAADTAVYYCTREDSSSWRSRGQGTLVTVSS
notes: Heavy chain-only antibody (UniAb), human IgG
B2: anti-CD22 heavy chain-only antibody with the VH of SEQ ID NO: 46 (antibody, V domains shown)
VH: B1 VH with S52N, S58A, S67N
notes: as for B1
B3: anti-CD22 heavy chain-only antibody with the VH of SEQ ID NO: 47 (antibody, V domains shown)
VH: B1 VH with D33G, S67N
notes: as for B1
B4: anti-CD22 heavy chain-only antibody with the VH of SEQ ID NO: 48 (antibody, V domains shown)
VH: B1 VH with Q41H, S52H, S58A, S67N
notes: as for B1
B5: anti-CD22 heavy chain-only antibody with the VH of SEQ ID NO: 49 (antibody, V domains shown)
VH: B1 VH with S52N, S58A, S67N, S104N
notes: as for B1
B6: anti-CD22 heavy chain-only antibody with the VH of SEQ ID NO: 50 (antibody, V domains shown)
VH: B1 VH with S52N, S58A, S67N, E100D, S104N
notes: as for B1
B7: anti-CD22 heavy chain-only antibody with the VH of SEQ ID NO: 51 (antibody, V domains shown)
VH: B1 VH with D27G, G32S, D33S, E100D, S104N
notes: as for B1
B8: anti-CD22 heavy chain-only antibody with the VH of SEQ ID NO: 52 (antibody, V domains shown)
VH: B1 VH with S104N
notes: as for B1
B9: anti-CD22 heavy chain-only antibody with the VH of SEQ ID NO: 53 (antibody, V domains shown)
VH: B1 VH with S56T, S104N
notes: as for B1
B10: anti-CD22 heavy chain-only antibody with the VH of SEQ ID NO: 54 (antibody, V domains shown)
VH: B1 VH with D27G, S52H, S58A, S67N, K77R, S104N
notes: as for B1
B11: anti-CD22 heavy chain-only antibody with the VH of SEQ ID NO: 56 (antibody, V domains shown)
VH: B1 VH with D27G, G32S, D33S, S52H, S58V, S67N, V94A, E100D, S104N
notes: as for B1
B12: anti-CD22 heavy chain-only antibody with the VH of SEQ ID NO: 57 (antibody, V domains shown)
VH: B1 VH with D27G, G32S, D33S, S52H, S58V, S67N, E100D, S104N
notes: as for B1
B13: anti-CD22 heavy chain-only antibody with the VH of SEQ ID NO: 58 (antibody, V domains shown)
VH: B1 VH with D27G, G32S, D33S, K77R, K83N
notes: as for B1
B14: anti-CD22 heavy chain-only antibody with the VH of SEQ ID NO: 59 (antibody, V domains shown)
VH: B1 VH with G32S, D33S, S104N
notes: as for B1
B15: anti-CD22 heavy chain-only antibody with the VH of SEQ ID NO: 60 (antibody, V domains shown)
VH: B1 VH with D27G, G32S, D33S, T98A
notes: as for B1
B16: anti-CD22 heavy chain-only antibody with the VH of SEQ ID NO: 61 (antibody, V domains shown)
VH: B1 VH with D27G, G32S, D33S, S58A, S67N
notes: as for B1
B17: anti-CD22 heavy chain-only antibody with the VH of SEQ ID NO: 62 (antibody, V domains shown)
VH: B1 VH with D27G, G32S, D33S, S52H, S58A, S67N, K77R, K83N
notes: as for B1
B18: anti-CD22 heavy chain-only antibody with the VH of SEQ ID NO: 63 (antibody, V domains shown)
VH: B1 VH with D27G, G32S, D33S
notes: as for B1
B19: anti-CD22 heavy chain-only antibody with the VH of SEQ ID NO: 64 (antibody, V domains shown)
VH: B1 VH with D27G, G32S, D33S, S52H, S58A, S67N, E100D, S104N
notes: as for B1
B20: anti-CD22 heavy chain-only antibody with the VH of SEQ ID NO: 65 (antibody, V domains shown)
VH: B1 VH with D27G, G32S, D33S, S58A, S67N, K77R, K83N
notes: as for B1
B21: anti-CD22 heavy chain-only antibody with the VH of SEQ ID NO: 66 (antibody, V domains shown)
VH: B1 VH with D27G, G32S, D33S, S67N, S104N
notes: as for B1
B22: anti-CD22 heavy chain-only antibody with the VH of SEQ ID NO: 67 (antibody, V domains shown)
VH: B1 VH with D27G, S30T, G32S, D33S, E100D, S104N
notes: as for B1
B23: anti-CD22 heavy chain-only antibody with the VH of SEQ ID NO: 68 (antibody, V domains shown)
VH: B1 VH with D27G, G32S, D33S, S58V, S67N, S104N
notes: as for B1
B24: anti-CD22 heavy chain-only antibody with the VH of SEQ ID NO: 69 (antibody, V domains shown)
VH: B1 VH with D27G, G32S, D33S, S104N
notes: as for B1
B25: anti-CD22 heavy chain-only antibody with the VH of SEQ ID NO: 70 (antibody, V domains shown)
VH: B1 VH with K13R, D27G, G32S, D33S
notes: as for B1
B26: anti-CD22 heavy chain-only antibody with the VH of SEQ ID NO: 71 (antibody, V domains shown)
VH: B1 VH with D27G, G32S, D33S, S58A, S67N, K77R, K83N, S104N
notes: as for B1
B27: anti-CD22 heavy chain-only antibody with the VH of SEQ ID NO: 72 (antibody, V domains shown)
VH: B1 VH with D27G, G32S, D33S, S58A, S67N, K77R, K83N, V94M, S104N
notes: as for B1
B28: anti-CD22 heavy chain-only antibody with the VH of SEQ ID NO: 73 (antibody, V domains shown)
VH: B1 VH with D27G, G32S, D33S, S58V, S67N
notes: as for B1
B29: anti-CD22 heavy chain-only antibody with the VH of SEQ ID NO: 74 (antibody, V domains shown)
VH: B1 VH with P42S, G44E, S52H, S58V, S67N, T98K, E100D, S104N
notes: as for B1
B30: anti-CD22 heavy chain-only antibody with the VH of SEQ ID NO: 75 (antibody, V domains shown)
VH: B1 VH with D27G, G32S, D33S, S52H, S58A, S67N
notes: as for B1
B31: anti-CD22 heavy chain-only antibody with the VH of SEQ ID NO: 76 (antibody, V domains shown)
VH: B1 VH with D27G, G32S, D33S, I53V, S56T, S58A, S67N, E100D, S104N
notes: as for B1
B32: anti-CD22 heavy chain-only antibody with the VH of SEQ ID NO: 78 (antibody, V domains shown)
VH: QLQLQESDPGLVKPSETLSLTCTVSGGSISSSSHYWGWIRQPPGKGLEWIGHIYYSGATYYNPSLKNRVTISVDTSRNQFSLNLSSVTAADTAVYYCTREDSSNWRSRGQGTLVTVSS
notes: as for B1
B33: anti-CD22 heavy chain-only antibody with the VH of SEQ ID NO: 79 (antibody, V domains shown)
VH: B32 VH with D8G, H34Y, H52S, A58S, E100D
notes: as for B1
B34: anti-CD22 heavy chain-only antibody with the VH of SEQ ID NO: 80 (antibody, V domains shown)
VH: B32 VH with D8G, H34Y
notes: as for B1

Experiments:
[1] = biological target: T1, human CD22 protein (recombinant CD22 …); experiment: ELISA on recombinant CD22 extracellular domain and/or cell binding
[2] = biological target: T2, human CD22 on CD22-positive Burkitt's …; experiment: cell binding, Daudi cells
Method: Binding to CD22 positive cells was assessed by flow cytometry (Guava easyCyte 8HT, EMD Millipore) using the Daudi cell line (ATCC). Briefly, 100,000 target cells were stained with a dilution series of purified UniAbs™ for 30 minutes at 4° C. Following incubation, the cells were washed twice with flow cytometry buffer (1×PBS, 1% BSA, 0.1% NaN_3) and stained with goat F(ab')2 anti-human IgG conjugated to R-phycoerythrin (PE) (Southern Biotech, cat. #2042-09) to detect cell-bound antibodies. After a 20-minute incubation at 4° C., the cells were washed twice with flow cytometry buffer and then mean fluorescence intensity (MFI) was measured by flow cytometry. EC50 values were calculated using GraphPad Prism 7. Binding to *cynomolgus* CD22 positive cells was determined using the same protocol with the following modifications: the target cells were from CHO cells stably transfected to express the extracellular domain of *cynomolgus* CD22 and each antibody was tested at a single concentration (~1.7 µg/mL) so EC50 values were not calculated.

| Binder | binding result [1] | binding result [2] |
| --- | --- | --- |
| B1 | binds | binds |
| B2 | binds | binds |
| B3 | binds | binds |
| B4 | binds | binds |
| B5 | binds | binds |
| B6 | binds | binds |
| B7 | binds | binds |
| B8 | binds | binds |
| B9 | binds | binds |
| B10 | binds | binds |
| B11 | binds | binds |
| B12 | binds | binds |
| B13 | binds | binds |
| B14 | binds | binds |
| B15 | binds | binds |
| B16 | binds | binds |
| B17 | binds | binds |

| Binder | binding result [1] | binding result [2] |
| --- | --- | --- |
| B18 | binds | binds |
| B19 | binds | binds |
| B20 | binds | binds |
| B21 | binds | binds |
| B22 | binds | binds |
| B23 | binds | binds |
| B24 | binds | binds |
| B25 | binds | binds |
| B26 | binds | binds |
| B27 | binds | binds |
| B28 | binds | binds |
| B29 | binds | binds |
| B30 | binds | binds |
| B31 | binds | binds |
| B32 | binds | binds |
| B33 | binds | binds |
| B34 | binds | binds |
